This data set relates to Saccharomyces cerevisiae. Briefly: transcriptional activation domain activity (GFP:mCherry ratio, weighted mean of sorted bins, harmonized to initial dataset scale) (arbitrary fluorescence ratio units); higher = stronger transcriptional activation. To be noted: beta-estradiol 1 µM; induction time 4 h. In a few lines: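 Activation activity, the read-weighted mean of bin median fluorescence averaged across barcodes, was linearly mapped onto the scale of the initial dataset. It was measured for barcoded protein tiles fused to an estradiol-inducible synthetic transcription factor at URA3 in GFP-reporter yeast diploids. Cultures diluted 1:5 into SC with 1 uM beta-estradiol were held 4 hours at 30 °C, sorted into 8 bins by GFP:mCherry ratio, and barcode-sequenced, and tiles under 50 reads were discarded.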

On to “IFFCHGRFLTSRSFWAFLLSLFLLIAPSILFLVFTCPWLWFHMSPSIPIVFSY”, for which the “transcriptional activation domain activity” value was found to be 51200.

Consider “IFFSQFGRYWIVFPGILFLTSVALSLILIVMLCIPGINLWTTISINLAIPYWA”, for which the “transcriptional activation domain activity” value amounted to 27300. In the case of “IFFVLPVFFFFHPPPFVFLPPSSFLPFLLLLLLLPLVLFISPPFSPSVAFYFT” it was 54100; in that of “IFGSSFFLLCLFNLFFFLFFLSFLSLLFSFFLFFLFFFLFDVFTTVILSSTYG”, 51800. Turning to “IFHLPLECPFPLTNRRNACALIENFLDAVKYHRHLFPYWRRRAIKYFIWREWF”, the “transcriptional activation domain activity” value amounted to 32300. For “IFLACCAVFPGLGNLGFTLMQYRLGQRSFLSAAAENLTWVPFFFFFFGGLSVH”, the “transcriptional activation domain activity” value came to 78400.

Turning to “IFLFHINHAVFKSVVWWIGVFFFVYVLITIMPILRYDSPYYSPLSASVWFLYT”, the “transcriptional activation domain activity” value was determined as 45800. Take “IFLHIFLLVLLRLLFLLLSLFYFLLLPHFFYNQPSLLLRLFLNFFQLSLSILL”: the “transcriptional activation domain activity” value turned out to be 34100. As for “IFNPLNWVFVQSSKVFPVDYILALLLVFDFFISSVVGIAFIGIRFLWVTLFRL”, the figure is 71500; as for “IFRVTLLLVYFWTSSIIIGVTQYIGTPLYLISKDHYYRFMAFTKQCMTLLVLS”, 65400; as for “IFSLILALIGMIILATIDVVHKIGVTYFACFLMAAGSYVPTVLVHSWHNNNNL”, 50300.

Take “IFTELYFIMSSIWFSKVYYMFGFLFVCFLLMTLTCAAVTILLVYFLLCAENYH”: the “transcriptional activation domain activity” value came out at 62000. Consider “IFTSFLLFHDPTLFMFISYDIAYVWWVHLMERLIEPLPLMCCFLIMPMICFVI”, for which the “transcriptional activation domain activity” value is 54400. In the case of “IFVLDIIQVRCNYFFFLSFLFIWMRSMFFLCSNRLVALFLFYFSGSTLRVTIM”, the “transcriptional activation domain activity” value turned out to be 51300. “IFVSLLDYLATWISDDQIKCWPLNFVSRMFFYMLYFVFYRTILLFLTIEEIAV”: the “transcriptional activation domain activity” value was 55200. Consider “IFVYLRIKKCCCLNKSSLLLDVRLIHKNRDTVIIFARGLVGIFKKLSLRVVEC”, for which the “transcriptional activation domain activity” value was 51200.

“IGENDTVDGKRFCTFYPQYREGRVRVNLGVTRLSFRAFYICPLAFTIARYLLN”: the “transcriptional activation domain activity” value came out at 67400. As for “IGETDAKAKKEKKEKKGKKAQEGAVVAETVDGGEEKKKKKKSKAKGETTADSM”, the “transcriptional activation domain activity” value came out at 35100.

For “IGFVDFPFSSCSFLLGYFCYSVFLCFPFLFLVFFGVIYMWSSRGFLVQSFTMI”, the “transcriptional activation domain activity” value amounted to 70800. On to “IGFYFLEYGQNCFRDDSDGPCWAGRYMVNVWNDLAVLRRLICYAAVQLARQHR”, for which the “transcriptional activation domain activity” value amounted to 40900. For “IGGFLGCLLMGHICLIILVFLCQTLVYREVTRLFTLMDSKPTLNWYFFATANY”, the “transcriptional activation domain activity” value is 53000. In the case of “IGIVYLLLCPFAFIFAYYFMRLRRTLIGSMPLSVINDPLLVELKVRFQLLDRG”, the “transcriptional activation domain activity” value was 42000. In the case of “IGKVTSAGLMSKTVRVDRPVQEWHNYLRKFYKSSKHYLVHDPANSLRTGDMIS” it was 69800; in that of “IGLCYVIILAIICFQRIYVQPYLYGIEAYMNREICLCWLVLLSLNLSTLQFNQ”, 74300; in that of “IGLLLLSILVIYIFISFPHHTIESGHCTISFTSPIAIFYLLLLNFFLNTYLSF”, 36300. In the case of “IGLPGFTWVYVARYGSVFNLLGLGVIGVVWNWGLAAVSISNYGNCWERLINWR” it was 54300.

“IGLQMASFVLGGFVYFGLSFQSSNYVVLLYYEFAALSQNVYLTVAIIWRLLIF”: the “transcriptional activation domain activity” value was 72300. In the case of “IGLQVLLGWSYVMINPLAIYSSPYLILFSFSSLVYLVLVNVLTLPSSLPFFHP” it was 87600. As to “IGMGLDAMLILSRLSRFIRIACVVFWWPGFAVFIAACKSLCLLLHFRDVRELR”, the “transcriptional activation domain activity” value was 63000. Regarding “IGMQLLLTWAYIRLNPFAVYSSPYIILFSFWSLGYLVLVYTLTLPSSLPFYHS”, the “transcriptional activation domain activity” value is 46800. Take “IGQFRFLQRLVLVHGRWSYRRLAETISNFFYKNMIWTFSIFWYQVFCNFDITY”: the “transcriptional activation domain activity” value amounted to 24600.

As to “IGSLLCERADVIARLVSYLLRRYAIDGFRTILLWLNDWPVGLKLNYHLASHFC”, the “transcriptional activation domain activity” value was 56800. For the sequence “IGSYYGKHELYEEVRAQDKILYCTLVLPFVYFLMFLWIWYYLYCFRFFGFFYA”, the “transcriptional activation domain activity” value turned out to be 22000. As for “IGTSSTGDLECCLFTLLLFSWFWGLQTFLSICYYYGSFVSQAFFFFFHFFFFW”, the figure is 53800. As for “IGVLHQVFFYKNLIWTFALLLFQIFCESNATYLFDYSLVLLFNLIFTSLPVIM”, the figure is 53200; as for “IGVRFDTSIKFINGHLERFLAYLGDPLLKQLCSGEILRRLLLLIIDPPILWND”, 79200. As for “IGWFFPFWIVLLLPLDMASSLYEGCDMLCRRPFTWVSQSFLYIAWRTIYWTSF”, the figure is 59000; as for “IGWWMVKSGLKDDLFAPGSHPRVSQYRLTAHLSTAFFCYSWMLLAGLSVLRTR”, 69800; as for “IGYFVPTTKFHGPARFGYLEYADHIFRLYEILDWRVFVGISLFLHWVFSYSHT”, 39100. “IHCLDSLFLLYMLTIFYLLWYSSLIFPLWCMISLYYFIVLSSTSLLGLSFISL”: the “transcriptional activation domain activity” value turned out to be 71500. As for “IHEPDQPLFSSFFSFFFVSFLSLIPPPLFPSSFPFLLFLPFLPPSLSLLSLIF”, the figure is 35500; as for “IHFFFFGGTYFFFFCQWGFGGFFFSFLTFIPFFSYIFHIFHYAVLWLWLWLWL”, 59800.

For “IHILASIPSEFWKLLILSFFEKFRSNIYHTLFYRFIYLNRGFILLLLNQLRLI”, the “transcriptional activation domain activity” value was determined as 48100. Take “IHILHGTLQTIIAHSRAPHFLHVPCMRLPLLLLLIPPLYFEYCLLLLSPFFFA”: the “transcriptional activation domain activity” value stood at 51200. In the case of “IHISPFLSFLLFNTFLFFFDILLEYDQSGKSSCSVLWGIGWGCWWILFIGSLQ” it was 38800; in that of “IHLFISSFPLLFICSLPYAFLSFFPHLFISYFLSSFYSLSTHLFHSFFPFLVI”, 59400. In the case of “IHQASIAHHPAQHPQRKAHQHSRGGARPQHESQEATRRLGPRHPAHVAALHRR”, the “transcriptional activation domain activity” value came to 30500.

“IHRLTFFFFFCFFFFFFCLFSFSVSFFFFLFFFFLFSTSLLARRFLSLFSSVA”: the “transcriptional activation domain activity” value turned out to be 50100. As for “IHSMYRPFQMLTMDFMVMNLCLFSAILLGILYLFFGAFHLVFTVVYDFKLWQV”, the figure is 43200.

Regarding “IHVESRLPEMRATLEPKRYVHVARFFSHLIIYFRLLHRPLPASTCNSMLRHYV”, the “transcriptional activation domain activity” value turned out to be 47400. As for “IIAAKPEVLVKEEAAVKEEVPKAAAAKPKAKGKGKGKGKGKKVAEKKPEPVAE”, the figure is 22400.

For the sequence “IIAKVIKYAKTIEELYLAYFSVKEYLLNIAIAKTCLTYLTDIKGSHSMIRYNF”, the “transcriptional activation domain activity” value was found to be 28200. As for “IIALLLRFYDPSSGKVLVGPDDLRNLNVRSLRSHIALVTQSPVLFSGTILDNI”, the figure is 42100; as for “IIDKLGSLTFVYARRNPITIGTFAATETAILEHYGAGNIWKYILWHWVICFYS”, 44400; as for “IIEEQSGEDDDLPGHKKQRKESLAELLASEPADGTSPRRKSGQIKRTVPAVVL”, under 6570.

For the origin of these results see the supplement of paper PMC12636428.
